One block for each binder: values may come before it.
Key:
His-Rab6A Q72L = target: T1, His-Rab6A Q72L (UniProt P20340 1-208, Q72L); assay: pull-down; concentration dependence: GTPγS-loaded His-Rab6A Q72L (0.58 μM) with GST-KIF1C CBD immobilized on glutathione Sepharose; quantitative fluorescent antibody immunoblot; fit with GraphPad Prism; settings: both partners purified
T1 construct: Rab6A GTPase, GTP-hydrolysis deficient mutant; also called active His-Rab6A; source: purified as described (Aivazian et al., 2006)

[1] = target: T2, Paclitaxel stabilized pre-polymerized microtubules (UniProt Q71U36 1-451; P07437 1-444, Paclitaxel-stabilized polymer, polymerized with GTP. One alpha/beta heterodimer represents the repeating unit. Source and isotypes are not given; mammalian (likely porcine) brain tubulin, a natural); assay: co-sedimentation; KIF1C-355-His (160 nM) with His-Rab6A Q72L, His-Rab33 or BSA (3.42 µM), then increasing microtubules, 2.6 mM ADP, 0.35 mM GTPγS; BRB80; settings: both partners purified
[2] = target: T2, Paclitaxel stabilized pre-polymerized …; assay: co-sedimentation; KIF1C-355-His (80 nM) with His-Rab6A Q72L (4.86 µM) or BSA (7.6 µM), then increasing microtubules, 2.6 mM AMP-PNP, 0.35 mM GTPγS; BRB80; settings: both partners purified
myc-KIF1C-350 = target: T3, myc-KIF1C-350 (human, UniProt O43896 1-350); assay: pull-down; concentration dependence: in vitro translated myc-KIF1C-350 with GTPγS-loaded GST-Rab6A Q72L; apparent KD; fit with KaleidaGraph; settings: one partner purified
T3 construct: KIF1C, human, N-terminal motor domain, residues 1-350; also called myc-KIF1C motor domain; in vitro translated KIF1C motor domain; source: in vitro translated
T3 sequence (looked up): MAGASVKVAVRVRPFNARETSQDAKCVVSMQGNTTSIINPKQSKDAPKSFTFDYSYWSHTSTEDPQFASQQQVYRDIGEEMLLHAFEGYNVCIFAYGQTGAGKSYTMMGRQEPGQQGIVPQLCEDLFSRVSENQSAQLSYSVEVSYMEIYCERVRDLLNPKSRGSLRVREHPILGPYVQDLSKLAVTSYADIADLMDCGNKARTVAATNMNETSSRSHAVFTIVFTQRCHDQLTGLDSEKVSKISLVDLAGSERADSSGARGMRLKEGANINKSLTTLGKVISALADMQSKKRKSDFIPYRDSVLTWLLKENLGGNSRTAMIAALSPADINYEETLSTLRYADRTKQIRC

- Kd (His-Rab6A Q72L): 900 nM
B1: GST-KIF1C CBD (domain or fragment, human, UniProt O43896 1060-1103, looked up)
chain: SYPQPPQPYPAQRPPGPRYPPYTTPPRMRRQRSAPDLKESGAAV
notes: the text calls it the C-terminal 40 amino acids; Text says 40 C-terminal residues, the legend AA 1060-1103 (44 residues); source: bacteria, purified (glutathione-Sepharose)

- Kd [1]: 2100 nM
- fold increase of KD with His-Rab6A (ADP state) [1]: > 10 fold
- Kd [2]: 460 nM
- fold increase of KD with His-Rab6A (AMP-PNP state) [2]: > 10 fold
B2: KIF1C-355-His (domain or fragment)
chain: MAGASVKVAVRVRPFNARETSQDAKCVVSMQGNTTSIINPKQSKDAPKSFTFDYSYWSHTSTEDPQFASQQQVYRDIGEEMLLHAFEGYNVCIFAYGQTGAGKSYTMMGRQEPGQQGIVPQLCEDLFSRVSENQSAQLSYSVEVSYMEIYCERVRDLLNPKSRGSLRVREHPILGPYVQDLSKLAVTSYADIADLMDCGNKARTVAATNMNETSSRSHAVFTIVFTQRCHDQLTGLDSEKVSKISLVDLAGSERADSSGARGMRLKEGANINKSLTTLGKVISALADMQSKKRKSDFIPYRDSVLTWLLKENLGGNSRTAMIAALSPADINYEETLSTLRYADRTKQIRNTVSVN
notes: KIF1C, human, motor domain residues 1-349; KIF5C heavy chain, murine, residues 329-334; Design follows Nitta et al., 2004 for KIF1A; also called recombinant KIF1C motor domain; purified KIF1C motor domain; source: E. coli Rosetta 2, purified (Ni-NTA, HiTrap Q FF); not shown: His6, C-terminal, kept

- Kd (myc-KIF1C-350): 230 nM
B3: GST-Rab6A Q72L (natural protein, UniProt P20340 1-208, looked up)
chain: MSTGGDFGNPLRKFKLVFLGEQSVGKTSLITRFMYDSFDNTYQATIGIDFLSKTMYLEDRTVRLQLWDTAGLERFRSLIPSYIRDSTVAVVVYDITNVNSFQQTTKWIDDVRTERGSDVIIMLVGNKTDLADKRQVSIEEGERKAKELNVMFIETSAKAGYNVKQLFRRVAAALPGMESTQDRSREDMIDIKLEKPQEQPVSEGGCSC
notes: Rab6A GTPase, GTP-hydrolysis deficient mutant; GTPγS-loaded; also called active Rab6A hydrolysis-deficient mutant; source: purified as described (Aivazian et al., 2006)
